One assay deals with OVMZ6-CDCP1 cells. As to the kind of experiment: Colony formation assay, OVMZ6-CDCP1 cells. The format is cell-based, human. The protocol: (§1) MMAE-conjugated 10D7 and IgG1K were prepared as described (Nielsen C F, et al., (2017) Oncotarget. 8(27):44605-24.53) and drug-antibody ratio (DAR) determined by reverse phase LC/MS as reported (Basa L. et al., (2013) Methods Mol Biol. 1045:285-93.) on an ABSCIEX Triple TOF spectrometer (AB SCIEX Framingham, Mass.) coupled to a Shimadzu Nexera 1D UHPLC system (Shimadzu, Rydalmere, Australia). ADC peak identification was performed as reported with DAR determined by peak area integration (Hamblett K J, et al., (2004) Clin Cancer Res. 10(20):7063-70; Yao X, et al., (2015) Breast Cancer Res Treat. 153(1):123-33). Colony-formation assays were performed as described (Crowley L C, et al., (2016) Cold Spring Harb Protoc. 2016(8):pdb.prot087171) on cells (100,000/ml) treated with the indicated concentrations of 10D7, 10D7-MMAE, IgG or IgG-MMAE overnight before being lifted and replated in 24-well plates (200 cells/well). After a defined growth period media was removed and cells gently PBS washed before staining with 0.1% crystal violet (Sigma-Aldrich) in 2% ethanol. After 20 minutes and stained cells were scanned (700 nm) on a LiCOR System (Odyssey V3.0 software) with images analyzed using the ColonyArea ImageJ plugin to quantify colony area and intensity (Guzmán C, et al., (2014) PLoS One. 9(3):e92444.). […]

Another assay relates to OVMZ6 cells. As to the kind of experiment: Colony formation assay, OVMZ6 cells. The format is cell-based, human. The following applies: even at the highest concentration. As for the experimental part:
as §1

In the next assay the test system is TKCC02 cells. As to the kind of experiment: Survival assay with cytotoxin-conjugated antibodies, TKCC02. The assay is classed as cell-based, human. The following applies: TKCC02, 1 μg/ml, 12 h treatment then 72 h growth. As for the experimental part:
(§2) The relative number of viable cells was then measured by adding the CellTiter AQueous One Solution Reagent to each well and measuring absorbance at 490 nm as described above. […] Cells were imaged by wide-field fluorescence microscopy and the total area of confluence for each cell type was quantified by image analysis using Image J software.

The test system of a further assay is TKCC05 cells. The assay can be described thus: Survival assay with cytotoxin-conjugated antibodies, TKCC05. The assay is classed as cell-based, human. The following applies: TKCC05, 1 μg/ml, 12 h treatment then 72 h growth. As for the experimental part:
as §2

A further assay deals with TKCC10 cells. The assay can be described thus: Survival assay with cytotoxin-conjugated antibodies, TKCC10. The format is cell-based, human. The following applies: TKCC10, 1 μg/ml, 12 h treatment then 72 h growth. The protocol: as §2
Assay [1] concerns TKCC05 cells and normal human pancreatic stellate cells. As to the kind of experiment: Co-culture assay of TKCC05 cells and normal human pancreatic stellate cells. The format is cell-based. As for the experimental part: For survival assays, cells (5,000/well) were plated in 96-well plates and allowed to attach for 24 h. Cells were then treated for 24 h with 10D7 (5 μg/ml) or isotype control IgG (5 μg/ml) before addition of gemcitabine (0.02 to 500 nM) and incubation for another 72 h. In assays assessing the effect of cytotoxin-conjugated antibodies, cells were treated for 12 h with 10D7-MMAE, IgG-MMAE, 10D7 or IgG (0.0625 to 1.0 μg/ml) then washed before the media was replaced with standard growth medium for 72 h. The relative number of viable cells was then measured by adding the CellTiter AQueous One Solution Reagent to each well and measuring absorbance at 490 nm as described above. In co-culture assays, mKO2 expressing TKCC05 PDAC cells (2,000 cells/well) were co-cultured with GFP expressing normal human pancreatic stellate cells (2,000 cells/well) for 24 h in a 1:1 mixture of TKCC05 and hPSC growth medium before treatments with 10D7-MMAE, IgG-MMAE, 10D7 or IgG (0.0625 to 1.0 μg/ml), IgG or 10D7 (1 μg/ml) or PBS as above. Cells were imaged by wide-field fluorescence microscopy and the total area of confluence for each cell type was quantified by image analysis using Image J software.
The generated antibody-drug conjugate (ADC), 10D7-MMAE, has an average drug-antibody ratio (DAR) of 4.5 to 4.7, and retains the functional ability to induce phosphorylation of CDCP1 and Src (see Example 7). […]

A further assay has as its system TKCC2.1 cells xenografts. The assay can be described thus: Pancreatic cancer subcutaneous xenograft, MMAE-labelled 10D7 and chimeric 10D7. The following applies: 125 μg iv, treated twice.

Protocol for TKCC2.1 cells xenografts: Pancreatic cancer cells (TKCC2.1 cells, 1×10^6 cells) were grafted subcutaneously in NSG mice. After 4 weeks, mice were randomized into 5 groups (10 mice per group) and treated with: PBS (iv, 125 μl fortnightly), IgG-MMAE (iv, 125 μg diluted in 125 μl PBS), 10D7-MMAE (iv, 125 μg diluted in 125 μl PBS), Chim hu/mu-10D7-MMAE (iv, 125 μg diluted in 125 μl PBS) or Gemcitabine (ip, 100 mg/kg in PBS weekly).
Mice were euthanized when one ethical end point was reached (either tumour size or excessive signs of distress).

B1: 10D7-MMAE (conjugate)
VH: EVQLQQFGAELVKPGASVKISCKASGYSFSDFNIEWLKQSHGKSLEWIGDINPNYDSTNYNQKFKGRATLTVDKSSSTAYMEVRSLTSEDTAVYYCARLGYGYAMDYWGQGTSVTVSS
VL: NIVMTQSPQSMSMSVGERVTLSCKASENVGAYVSWFQQKPDQSPKLLILAASNRYTGVPARFIGSGSATDFTLTISSVQAEDLADYHCGQSYTYPYTFGGGTKLEIKRADAAPTVS
In the case of B1, in the assay with OVMZ6-CDCP1 cells, the “half maximum dose required to block colony formation” value was roughly 0.07 µg/mL. Also, the colony formation result in the assay on OVMZ6 cells is recorded as “unaffected”. Moreover, the values for the survival of cells entry with TKCC02 cells, in the assay on TKCC05 cells and in the assay with TKCC10 cells were “about 25%”, “about 10%” and “about 50%”, respectively. In assay [1] (CDCP1 expressing cells), the “response of TKCC05 cells” value was “very sensitive”. Further, the “response of normal human pancreatic stellate cells” value in assay [1] (CDCP1 non-expressing cells) is on record as “unresponsive”. Besides, the “reduction of pancreatic tumour volume” value in the assay on TKCC2.1 cells xenografts is given as “superior to gemcitabine”. Moreover, in the assay on TKCC2.1 cells xenografts, the survival of mice entry is given as “prolonged”.

The record behind these values is patent US20220389113A1, “BINDING PROTEINS TO CUB DOMAIN-CONTAINING PROTEIN (CDCP1)” (COMMONWEALTH SCIENTIFIC AND INDUSTRIAL RESEARCH ORGANISATION, priority 2019, published 2022).
